Test results reported in US20220064276A1 (SCHOLAR ROCK, published 2022).

Tests used:
[1] = target: T1, human LTBP3-proTGFβ1 complex (human, UniProt Q9NS15 44-1303; P01137 30-390, limits assumed); assay: SPR Biacore 8K, Fab over captured antigen
T1 construct: Exemplary entries; also called Hu LTBP3-proTGFβ1; huLTBP3 proTGFb1
Summary of the method: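 Biotinylated antigen complexes captured on a Biotin CAPture chip (10 nM, ~200 RU), with Fab fragments injected as analyte by multi-cycle kinetics and regeneration between cycles. Runs in HBS-EP+ pH 7.4, 0 nM analyte as reference; ka, kd and KD from a global 1:1 binding fit.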

[2] = target: T2, mouse GARP-proTGFβ1 complex (mouse, UniProt G3XA59 18-628; P04202 30-390, limits assumed); assay: SPR Biacore 8K, Fab over captured antigen, Rmax fixed
T2 construct: Exemplary entries; also called MuGARP-ProTGFb1; Mu GARP-ProTGFβ1
T2 sequence (G3XA59 18-628 limits assumed, chain 1 of 2): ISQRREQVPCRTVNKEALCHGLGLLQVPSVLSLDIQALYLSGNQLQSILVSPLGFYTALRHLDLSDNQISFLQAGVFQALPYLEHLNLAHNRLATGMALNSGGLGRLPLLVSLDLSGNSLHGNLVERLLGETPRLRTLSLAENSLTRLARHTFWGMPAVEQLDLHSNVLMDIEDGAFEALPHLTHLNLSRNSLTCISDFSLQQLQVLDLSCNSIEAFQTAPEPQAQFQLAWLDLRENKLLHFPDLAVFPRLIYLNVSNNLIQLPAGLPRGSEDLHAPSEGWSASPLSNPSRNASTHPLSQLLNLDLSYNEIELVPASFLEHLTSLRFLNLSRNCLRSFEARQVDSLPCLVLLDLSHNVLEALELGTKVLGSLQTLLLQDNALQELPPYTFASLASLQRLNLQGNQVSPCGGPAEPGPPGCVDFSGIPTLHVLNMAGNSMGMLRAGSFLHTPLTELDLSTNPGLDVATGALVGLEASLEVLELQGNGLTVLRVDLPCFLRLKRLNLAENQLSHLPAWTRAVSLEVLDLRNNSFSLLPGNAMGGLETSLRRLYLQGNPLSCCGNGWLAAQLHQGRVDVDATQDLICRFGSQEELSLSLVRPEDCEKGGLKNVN
T2 sequence (P04202 30-390 limits assumed, chain 2 of 2): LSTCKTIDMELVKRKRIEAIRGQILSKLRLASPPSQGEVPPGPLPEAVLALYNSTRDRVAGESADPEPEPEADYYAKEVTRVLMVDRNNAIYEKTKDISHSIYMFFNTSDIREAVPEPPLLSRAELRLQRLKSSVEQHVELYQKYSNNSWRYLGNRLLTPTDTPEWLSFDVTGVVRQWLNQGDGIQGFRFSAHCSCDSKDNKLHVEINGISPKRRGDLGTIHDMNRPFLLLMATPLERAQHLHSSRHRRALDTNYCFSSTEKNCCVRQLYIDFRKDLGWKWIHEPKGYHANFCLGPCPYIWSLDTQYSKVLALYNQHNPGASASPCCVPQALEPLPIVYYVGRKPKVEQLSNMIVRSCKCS
Description: (§1) These experiments were performed using the Biacore 8K using the method “multi-cycle kinetics/affinity using Biotin CAPture kit.”
(§2) Data collection rate was set to 10 Hz and the Biotin CAPture step was performed for 300 seconds with a flow rate of 2 μL/minute. The Biotin CAPture reagent was used after a 1:5 dilution in 1× Biacore running buffer. Biotinylated ligands (the various complexes of TGFβ1) were utilized at a concentration of 10 nM and were immobilized to the sensor chip for 180 seconds with a flow rate of 10 μL/minute. […] Analyte contact time was 120 seconds and the dissociation time was 900 seconds. The regeneration cycle utilized was 120 seconds with a flow rate of 10 μL/minute.
(§3) The evaluation method used was “multi-cycle affinity using capture” and a 1:1 binding model was used. […] Global fits were utilized for every KD determination.

[3] = target: T3, mouse LTBP3-proTGFβ1 complex (mouse, UniProt Q61810 41-1245; P04202 30-390, limits assumed); assay: as above
T3 construct: Exemplary entries; also called Mo LTBP3-proTGFβ1; Murine LTBP3 proTGFb1
Description: as §1, §2, §3

[4] = target: T4, mouse LTBP1-proTGFβ1 complex (mouse, UniProt Q8CG19 339-1712; P04202 30-390); assay: as above
T4 construct: Exemplary entries; In the cell assays expressed from mouse LTBP1S and mouse proTGFb1 plasmids in LN229 cells; also called Mo LTBP1-proTGFβ1; MuLTBP1-ProTGFb1
T4 sequence (Q8CG19 339-1712 limits assumed, chain 1 of 2): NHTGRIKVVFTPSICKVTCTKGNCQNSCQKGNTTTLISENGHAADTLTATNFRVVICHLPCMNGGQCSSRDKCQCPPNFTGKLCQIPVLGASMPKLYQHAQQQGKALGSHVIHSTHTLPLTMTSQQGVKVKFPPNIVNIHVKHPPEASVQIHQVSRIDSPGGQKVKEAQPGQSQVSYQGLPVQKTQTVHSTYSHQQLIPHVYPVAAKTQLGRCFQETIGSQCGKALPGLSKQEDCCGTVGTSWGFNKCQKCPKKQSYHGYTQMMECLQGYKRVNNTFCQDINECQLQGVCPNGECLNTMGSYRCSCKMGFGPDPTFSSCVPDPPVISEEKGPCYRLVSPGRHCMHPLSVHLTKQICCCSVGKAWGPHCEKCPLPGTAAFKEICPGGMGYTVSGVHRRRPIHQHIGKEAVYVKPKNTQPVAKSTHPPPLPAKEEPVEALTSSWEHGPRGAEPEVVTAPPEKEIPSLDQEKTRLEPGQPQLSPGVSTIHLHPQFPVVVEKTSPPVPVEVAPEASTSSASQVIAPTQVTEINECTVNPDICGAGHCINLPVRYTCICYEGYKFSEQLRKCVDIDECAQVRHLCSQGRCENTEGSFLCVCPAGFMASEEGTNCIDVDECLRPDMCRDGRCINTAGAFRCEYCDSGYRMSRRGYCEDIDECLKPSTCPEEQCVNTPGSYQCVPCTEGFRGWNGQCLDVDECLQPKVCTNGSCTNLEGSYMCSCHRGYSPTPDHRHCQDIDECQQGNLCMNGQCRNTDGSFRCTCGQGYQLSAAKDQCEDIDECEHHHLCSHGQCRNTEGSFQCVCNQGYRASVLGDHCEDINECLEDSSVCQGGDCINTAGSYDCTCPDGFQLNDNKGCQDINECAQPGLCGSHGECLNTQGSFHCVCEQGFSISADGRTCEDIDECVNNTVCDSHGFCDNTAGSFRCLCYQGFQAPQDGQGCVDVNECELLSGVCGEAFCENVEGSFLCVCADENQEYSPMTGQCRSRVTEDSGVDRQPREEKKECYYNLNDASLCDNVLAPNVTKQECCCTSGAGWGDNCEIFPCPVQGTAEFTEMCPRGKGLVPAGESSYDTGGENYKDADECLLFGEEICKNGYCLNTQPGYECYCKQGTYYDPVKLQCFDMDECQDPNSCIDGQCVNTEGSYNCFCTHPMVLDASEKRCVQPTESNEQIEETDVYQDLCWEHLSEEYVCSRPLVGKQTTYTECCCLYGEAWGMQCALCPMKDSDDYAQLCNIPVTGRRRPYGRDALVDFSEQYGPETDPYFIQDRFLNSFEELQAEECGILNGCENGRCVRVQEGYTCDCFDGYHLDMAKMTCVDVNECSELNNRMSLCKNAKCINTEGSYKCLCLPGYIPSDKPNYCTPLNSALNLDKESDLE
T4 sequence (P04202 30-390 limits assumed, chain 2 of 2): as the sequence (P04202 30-390 limits assumed, chain 2 of 2) above
Description: as §1, §2, §3

[5] = target: T1, human LTBP3-proTGFβ1 complex; assay: as above
Description: as §1, §2, §3

[6] = target: T5, human GARP-proTGFβ1 complex (human, UniProt Q14392 18-627; P01137 30-390, limits assumed); assay: as above
T5 construct: Exemplary entries; also called Hu GARP-proTGFβ1; huGARP proTGFb1
T5 sequence (Q14392 18-627 limits assumed, chain 1 of 2): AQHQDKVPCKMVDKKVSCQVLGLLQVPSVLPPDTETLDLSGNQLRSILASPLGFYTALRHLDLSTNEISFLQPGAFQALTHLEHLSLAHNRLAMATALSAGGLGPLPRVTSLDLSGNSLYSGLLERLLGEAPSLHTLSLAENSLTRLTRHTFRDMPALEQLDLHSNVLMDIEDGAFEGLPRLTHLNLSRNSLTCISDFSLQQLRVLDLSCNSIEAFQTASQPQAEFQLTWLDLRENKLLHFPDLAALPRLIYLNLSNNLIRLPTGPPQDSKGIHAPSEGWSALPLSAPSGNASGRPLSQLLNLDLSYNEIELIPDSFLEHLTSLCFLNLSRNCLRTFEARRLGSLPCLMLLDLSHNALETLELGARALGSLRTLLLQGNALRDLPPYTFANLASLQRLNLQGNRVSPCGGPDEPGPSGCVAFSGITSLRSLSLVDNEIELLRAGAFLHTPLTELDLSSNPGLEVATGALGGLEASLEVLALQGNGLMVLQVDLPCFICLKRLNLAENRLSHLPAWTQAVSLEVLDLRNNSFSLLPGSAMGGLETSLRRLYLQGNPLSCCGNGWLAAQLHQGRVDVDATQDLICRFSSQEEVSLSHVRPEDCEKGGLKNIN
T5 sequence (P01137 30-390 limits assumed, chain 2 of 2): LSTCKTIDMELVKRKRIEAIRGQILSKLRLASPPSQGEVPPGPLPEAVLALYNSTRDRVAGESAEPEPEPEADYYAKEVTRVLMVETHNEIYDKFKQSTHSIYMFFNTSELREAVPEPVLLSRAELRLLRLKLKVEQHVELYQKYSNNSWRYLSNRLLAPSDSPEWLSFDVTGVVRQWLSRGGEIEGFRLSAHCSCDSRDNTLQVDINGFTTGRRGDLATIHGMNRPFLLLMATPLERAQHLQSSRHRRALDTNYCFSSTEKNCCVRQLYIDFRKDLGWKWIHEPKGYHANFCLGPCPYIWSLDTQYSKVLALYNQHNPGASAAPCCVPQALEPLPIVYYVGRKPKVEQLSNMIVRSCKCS
Description: as §1, §2, §3

[7] = target: T6, mouse LRRC33-proTGFβ1 complex (mouse, UniProt Q8BMT4 20-651, limits assumed); assay: as above
T6 construct: also called MuLRRC33-ProTGFb1; Mu LRRC33-ProTGFβ1
T6 sequence (Q8BMT4 20-651 limits assumed, chain 1 of 2): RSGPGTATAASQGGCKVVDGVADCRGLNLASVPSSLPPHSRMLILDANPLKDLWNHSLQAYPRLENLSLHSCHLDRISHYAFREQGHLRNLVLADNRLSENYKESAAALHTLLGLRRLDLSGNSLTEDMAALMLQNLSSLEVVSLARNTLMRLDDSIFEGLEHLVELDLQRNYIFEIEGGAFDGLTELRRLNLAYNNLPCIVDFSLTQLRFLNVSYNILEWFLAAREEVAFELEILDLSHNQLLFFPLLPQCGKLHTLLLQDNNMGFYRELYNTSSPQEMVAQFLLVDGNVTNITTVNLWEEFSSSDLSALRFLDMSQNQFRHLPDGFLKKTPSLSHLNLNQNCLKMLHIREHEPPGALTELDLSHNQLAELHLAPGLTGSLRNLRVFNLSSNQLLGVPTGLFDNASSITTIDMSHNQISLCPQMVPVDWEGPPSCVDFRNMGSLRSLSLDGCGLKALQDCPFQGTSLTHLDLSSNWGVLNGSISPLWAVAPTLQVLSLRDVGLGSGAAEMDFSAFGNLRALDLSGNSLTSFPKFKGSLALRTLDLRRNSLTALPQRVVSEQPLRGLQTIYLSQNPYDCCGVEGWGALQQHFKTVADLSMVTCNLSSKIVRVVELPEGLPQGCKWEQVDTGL
T6 sequence (chain, as listed by the source limits assumed, chain 2 of 2): as the sequence (P04202 30-390 limits assumed, chain 2 of 2) above
Description: as §1, §2, §3

[8] = target: T7, human LRRC33-proTGFβ1 complex (human, UniProt Q86YC3 19-650; P01137 30-390, limits assumed); assay: as above
T7 construct: Exemplary entries; also called huLRRC33 proTGFb1; HuLRRC33-ProTGFb1
T7 sequence (Q86YC3 19-650 limits assumed, chain 1 of 2): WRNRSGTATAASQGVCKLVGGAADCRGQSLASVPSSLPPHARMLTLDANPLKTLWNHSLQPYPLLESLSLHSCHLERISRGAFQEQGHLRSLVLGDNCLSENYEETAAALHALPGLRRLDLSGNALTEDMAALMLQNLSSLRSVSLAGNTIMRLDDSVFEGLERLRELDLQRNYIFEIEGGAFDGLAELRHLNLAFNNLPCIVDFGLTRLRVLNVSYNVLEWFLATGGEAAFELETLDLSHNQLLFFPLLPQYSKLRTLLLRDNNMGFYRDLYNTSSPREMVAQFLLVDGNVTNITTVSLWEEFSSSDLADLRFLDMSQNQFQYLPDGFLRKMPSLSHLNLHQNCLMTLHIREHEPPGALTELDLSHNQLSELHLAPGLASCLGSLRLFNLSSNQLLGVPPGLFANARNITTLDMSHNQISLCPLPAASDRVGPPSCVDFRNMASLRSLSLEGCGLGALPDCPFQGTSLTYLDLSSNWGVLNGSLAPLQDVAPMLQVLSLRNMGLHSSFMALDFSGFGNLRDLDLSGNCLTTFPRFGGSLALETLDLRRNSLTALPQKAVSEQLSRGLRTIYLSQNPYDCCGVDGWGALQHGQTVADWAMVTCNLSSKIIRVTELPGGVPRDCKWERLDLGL
T7 sequence (P01137 30-390 limits assumed, chain 2 of 2): as the sequence (P01137 30-390 limits assumed, chain 2 of 2) above
Description: as §1, §2, §3

[9] = target: T8, human LTBP1-proTGFβ1 complex (human, UniProt Q14766 347-1721; P01137 30-390); assay: as above
T8 construct: Large latent complex: one presenting molecule disulfide-linked to a proTGFβ1 dimer; also called Hu LTBP1-proTGFβ1; huLTBP1 proTGFβ1
Description: as §1, §2, §3

[10] = target: T2, mouse GARP-proTGFβ1 complex; assay: SPR Biacore 8K, monovalent Fab
Description: as §2, §3
(§4) The monovalent half-binding-time (T^{1/2}) value was at least 45 minutes for each of hLTBP1-proTGFβ1 and hLTBP3-proTGFβ1 complexes. The monovalent T^{1/2} value was less than 5 minutes for each of hGARP-proTGFβ1 and hLRRC33-proTGFβ1 complexes, as measured by SPR.

[11] = target: T3, mouse LTBP3-proTGFβ1 complex; assay: SPR Biacore 8K, monovalent Fab
Description: as §2, §3, §4

[12] = target: T4, mouse LTBP1-proTGFβ1 complex; assay: SPR Biacore 8K, monovalent Fab
Description: as §2, §3, §4

[13] = target: T1, human LTBP3-proTGFβ1 complex; assay: SPR Biacore 8K, monovalent Fab
Description: as §2, §3, §4

[14] = target: T5, human GARP-proTGFβ1 complex; assay: SPR Biacore 8K, monovalent Fab
Description: as §2, §3, §4

[15] = target: T6, mouse LRRC33-proTGFβ1 complex; assay: SPR Biacore 8K, monovalent Fab
Description: as §2, §3, §4

[16] = target: T7, human LRRC33-proTGFβ1 complex; assay: SPR Biacore 8K, monovalent Fab
Description: as §2, §3, §4

[17] = target: T8, human LTBP1-proTGFβ1 complex; assay: SPR Biacore 8K, monovalent Fab
Description: as §2, §3, §4

[18] = target: T3, mouse LTBP3-proTGFβ1 complex; assay: SPR Biacore 8K, Fab over captured antigen; mean of 2
Description: (§5) A Biacore 8K system was employed to determine the monovalent binding affinity and the kinetic parameters for antigen binding of test antibodies. Association and dissociation kinetics of Fab fragments SR-AB42-HuFab, SR-AB63-HuFab and SR-AB43-HuFab to antigen complexes were measured, and resulting ka, kd and KD are provided below. Briefly, the binding kinetics were evaluated by surface plasmon resonance using Biacore 8K (GE Healthcare). Biotinylated capture antigens were immobilized to the chip (10 nM, ˜200 RU loading). A Biotin CAPture sensor chip was used to capture the biotinylated antigens. […] 0 nM was used as a reference. […] 0 nM was used as a reference. Multi-cycle kinetics was employed where each analyte concentration was injected in a separate cycle and the sensor chip surface was regenerated after each cycle. A11 the assays were carried out in freshly prepared 1× HBS-EP+ buffer (10 mM HEPES, 150 mM NaCl, 3 mM EDTA, 0.05% Tween20, pH 7.4). Data were fit globally to a 1:1 binding model to obtain the kinetic parameters. The sensorgram for 0 nM analyte concentration was used as reference.

[19] = target: T5, human GARP-proTGFβ1 complex; assay: SPR Biacore 8K, Fab up to 100 nM over captured antigen
Description: as §5

[20] = target: T7, human LRRC33-proTGFβ1 complex; assay: as above
Description: as §5

[21] = target: T8, human LTBP1-proTGFβ1 complex; assay: SPR Biacore 8K, Fab over captured antigen; mean of 5
Description: as §5

[22] = target: T5, human GARP-proTGFβ1 complex; assay: Octet BLI (N.B. = non-binder under conditions of this assay)
Description: Binding affinities of the optimized antibodies were measured by Octet against human LTBP1-proTGFβ1, human LTBP3-proTGFβ1, mouse LTBP1-proTGFβ1, mouse LTBP3-proTGFβ1, and GARP-proTGFβ1 complexes, essentially as described in Example 6. […] The antigens were allowed to associate for 3 minutes followed by a 5-minute dissociation. Kinetics buffer (ForteBio®) was used throughout the experiment, and KD was determined using a 1:1 fitting model for each antibody antigen pair.
Table 9 presents the binding profile and affinity data for the indicated LTBP complex-specific antibodies (IgG1-agly) identified from the light chain optimization cycle 3, determined by Octet.

[23] = target: LTBP-proTGFβ1: transfected human proTGFβ1 presented by endogenous LTBP1/3 of LN229 cells (human); assay: cell-based or functional assay
Chain of LTBP-proTGFβ1: transfected human proTGFβ1 presented by endogenous LTBP1/3 of LN229 cells (human) (P01137 30-390): as the sequence (P01137 30-390 limits assumed, chain 2 of 2) above

[24] = target: T4, mouse LTBP1-proTGFβ1 complex; assay: cell-based or functional assay
[25] = target: T3, mouse LTBP3-proTGFβ1 complex; assay: Octet BLI, IgG captured
Summary of the method: (§6)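 IgG captured on the Octet biosensor, with complex antigen associating for 3 min and dissociating for 5 min in kinetics buffer. KD was fitted with a 1:1 binding model for each antibody–antigen pair.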

[26] = target: T4, mouse LTBP1-proTGFβ1 complex; assay: Octet BLI, IgG captured
Summary of the method: as §6

[27] = target: T1, human LTBP3-proTGFβ1 complex; assay: Octet BLI, IgG captured
Summary of the method: as §6

[28] = target: T8, human LTBP1-proTGFβ1 complex; assay: Octet BLI, IgG captured
Summary of the method: as §6

B1: SR-AB42-HuFab (Fab, V domains shown)
VH: QVQLVESGGGVVQPGRSLRLSCAASGFTFRSYVMHWVRQAPGKGLEWVAVISHEGSLKYYADSVKGRFTISRDNSKNTLYLQMNSLRAEDTAVYYCARPRIAARRGGFGYWGQGTLVTVSS
VL: NFMLTQPHSVSESPGKTVTISCTRSSGNIDNNYVQWYQQRPGSSPTTVIYEDNQRPSGVPDRFSGSIDSSSNSASLTISGLKTEDEADYYCQSYDYDTQGVVFGGGTKLTVL
notes: Human Fab; also called SR-AB42 Fab; LTBP-SR-AB42 HuFab
B1 was tested, and the Kd [1] was 0.35 nM, the koff [1] was 0.000142 s⁻¹ and the kon [1] was 405000 M⁻¹ s⁻¹. The Kd [2] was 29.1 nM, the Kd [3] was 0.68 nM and the Kd [4] was 0.611 nM. It also gave a Kd [5] of 0.57 nM, a Kd [6] of 145 nM and a Kd [7] of 110 nM. The Kd [8] was 134 nM, the Kd [9] was 0.381 nM and the Kd [10] was 29 nM. For the same binder, the “T1/2 Binding” value [10] was 5.1 min, the Kd [11] was 0.68 nM and the “T1/2 Binding” value [11] was 1.2 h. The Kd [12] was 0.6 nM, the “T1/2 Binding” value [12] was 1.1 h and the Kd [13] was 0.57 nM. For the same binder, the “T1/2 Binding” value [13] was 1.7 h, the Kd [14] was 144 nM and the “T1/2 Binding” value [14] was 1.9 min. For the same binder, the Kd [15] was 110 nM, the “T1/2 Binding” value [15] was 7.4 min and the Kd [16] was 134 nM. For the same binder, the “T1/2 Binding” value [16] was 4.3 min, the “T1/2 Binding” value [17] was 1.7 h and the Kd [18] was 2.66 nM. It also gave a Kd [19] of 38.9 nM, a koff [19] of 0.00604 s⁻¹ and a kon [19] of 155000 M⁻¹ s⁻¹. For the same binder, the Kd [20] was 43.6 nM, the koff [20] was 0.00353 s⁻¹ and the kon [20] was 80900 M⁻¹ s⁻¹. It also gave a Kd [21] of 0.194 nM, a koff [21] of 0.000105 s⁻¹ and a kon [21] of 543000 M⁻¹ s⁻¹.

B2: SR-AB43 (antibody, IgG1, V domains shown)
VH: QVQLVESGGGVVQPGRSLRLSCAASGFTFRSYVMHWVRQAPGKGLEWVAVISHEGSLKYYADSVKGRFTISRDNSKNTLYLQMNSLRAEDTAVYYCARPRIAARRGGFGYWGQGTLVTVSS
VL: NFMLTQPHSVSESPGKTVTISCTRSSGNIDYNYVQWYQQRPGSSPTTVIYEDNVRPSGVPDRFSGSIDSSSNSASLTISGLKTEDEADYYCQSYDSDNQRVVFGGGTKLTVL
notes: Cycle 3, lineage SR-AB23
In the case of B2, the binding result [22] is reported as “no binding (tested: antigen 100 nM)”, the “IC50, endogenous hLTBP assay (CAGA12 luciferase)” value [23] is reported as 1.76 nM and the “IC50, mLTBP1 assay (CAGA12 luciferase)” value [24] is reported as 0.319 nM. It also gave a Kd [25] of 0.891 nM, a Kd [26] of 0.731 nM and a Kd [27] of 0.178 nM. It also gave a koff [27] of 6e-05 s⁻¹, a kon [27] of 337000 M⁻¹ s⁻¹ and a Kd [28] of 0.649 nM. The koff [28] was 0.000159 s⁻¹ and the kon [28] was 244000 M⁻¹ s⁻¹.
